Experimental findings from article PMC7347513 (Cancer Immunology, Immunotherapy : CII, 2020) are described below.

Numbering of substitutions follows the chain as printed.

Assay [1] deals with T1, HLA A*0201 presenting HCMV pp65 peptide […] on cells (human HLA-A*02:01 and B2M; HCMV pp65 …, strain).
T1 construct: copies: + +
Description: flow cytometry on cells. The note with it: one partner purified. A general note: A flow cytometer gives signals particle by particle.

Assay [2] has as its target T2, biotinylated HLA A*0201/HCMV pp65 peptide […] complex (human HLA-A*02:01 and B2M; HCMV pp65 …, strain, biotin (in vivo, BirA, AviTag)).
T2 construct: copies: + +
Description: ELISA. The note with it: both partners purified. (In general: An ELISA detects its analyte on a solid surface through an enzyme-linked reagent.)

The target of assay [3] is T3, HLA A*0101 presenting HCMV pp65 peptide […] on cells (human HLA-A*01:01 and B2M; HCMV pp65 …, strain).
T3 construct: copies: + +
Description: flow cytometry on cells. The note with it: one partner purified.

In assay [4] the target is T4, biotinylated HLA A*0101/HCMV pp65 peptide […] complex (human HLA-A*01:01 and B2M; HCMV pp65 …, strain, biotin (in vivo, BirA, AviTag)).
T4 construct: copies: + +
Description: ELISA. To be noted: both partners purified.

In assay [5] the target is T5, HLA B*0702 presenting HCMV pp65 peptide … on cells (Homo sapiens HLA-B*07:02/B2M; HCMV pp65 …, strain).
T5 construct: copies: + +
Description: flow cytometry on cells. The note with it: one partner purified.

B1: biotinylated Fab A11 (Fab, V domains shown)
VH: EVQLVQSGAEVKRPGASVKVSCKASGYTFTSYGIGWVRQAPGQGLEWMGWISAYSGNTNYAQNFQGRITMTTDTSTSTAYMELRSLRSDDTAVYYCARDFGKWDLPMYGMDVWGQGTTVTVSS
VL: QSVLTQPPSVSVAPGGTARISCGGNNIGTKNVHWYQQKPGQAPVLVMYYNSDRPAGIPERFSGSNSGNTATLTITRVEPGDEADYYCQVWDDRRDHYVFGTGTEVTVL
notes: source: E. coli TG1, biotinylated in vivo, purified (IMAC, Talon beads)
Turning to B1, the binding result in assay [1] is reported as “binds”.

B2: Fab A11 (Fab, V domains shown)
VH: B1 VH
VL: B1 VL
notes: source: E. coli TG1, purified (IMAC, Talon beads)
For B2, in assay [2], the binding result is given as “binds”.

B3: biotinylated Fab A9 (Fab, V domains shown)
VH: B1 VH with K12R, R13N, Y32H, G35N, V37L, F64L, G66D, I68V, T69S
VL: QSVLTQPPSVSAAPGQRVTISCSGSSSDIGKSGKNYVAWYQQLPGMAPKLLIHDTIKRPSGIPDRFSASKSGTSATLDITGLQTGDEGDYYCGTWNNNLSAYVFGTGTTITVL
notes: as for B1
Consider B3, for which the binding result in assay [1] is recorded as “binds”.

B4: Fab A9 (Fab, V domains shown)
VH: B1 VH with K12R, R13N, Y32H, G35N, V37L, F64L, G66D, I68V, T69S
VL: B3 VL
notes: as for B2
For the molecule B4, the binding result in assay [2] was “binds”.

B5: biotinylated Fab F3 (Fab, V domains shown)
VH: QVQLVQSGAEVKKPGASVKVSCKASGYTFTSYYMHWVRQAPGQGLEWMGIINPSGGSTSYAQKFQGRVTMTRDTSTSTVYMELSSLRSEDTAVYYCASGITGAHDYWGQGTLVTVSS
VL: QSVVTQPPSVSGAPGQRVTISCTGSSSNIGAGYDVHWYQQLPGTAPKLLIYENSIRPSGVPDRFSGSKSGTAASLAITGLQAEDEAEYYCQSYDNSLSGPNWVFGGGTKLTVL
notes: as for B1
In the case of B5, the binding result in assay [3] is “binds”.

B6: Fab C1 (Fab, V domains shown)
VH: EVQLVQSGAEVKKPGSSVKVSCKASGGTFSSYAISWVRQAPGQGLEWMGGIIPIFGTANYAQKFQGRVTITADESTSTAYMELSSLRSEDTAVYYCARGLAAPDYFDYWGQGTLVTVSS
VL: B5 VL with E52G, I55N, A72S, E87D, N95S, N101F, W102Y, G106T, L110V
notes: as for B2
With B6, in assay [2], the binding result is given as “binds”.

B7: Fab F3 tetramer (Fab, V domains shown)
VH: B5 VH
VL: B5 VL
notes: copies: 4 + 4
As for B7, in assay [3], the binding result is “binds”.

B8: Fab C1 tetramer (Fab, V domains shown)
VH: B6 VH
VL: B5 VL with E52G, I55N, A72S, E87D, N95S, N101F, W102Y, G106T, L110V
notes: copies: 4 + 4
As for B8, the binding result in assay [1] is given as “binds”.

B9: biotinylated Fab C1 (Fab, V domains shown)
VH: B6 VH
VL: B5 VL with E52G, I55N, A72S, E87D, N95S, N101F, W102Y, G106T, L110V
notes: as for B1
In the case of B9, the binding result in assay [1] is given as “binds”.

B10: Fab F3 (Fab, V domains shown)
VH: B5 VH
VL: B5 VL
notes: as for B2
Take B10: the binding result in assay [4] is on record as “binds”.

B11: biotinylated Fab C7 (Fab, V domains shown)
VH: EVQLVQSGAEVKKPGASVKVSCKASGYTFTSYYMHWVRQAPGQGLEWMGIINPSDGSTSYAQKFQGRVTMTRDTSTSTAYMELSSLRSEDTAVYYCARYIGIMDVWGQGTTVTVSS
VL: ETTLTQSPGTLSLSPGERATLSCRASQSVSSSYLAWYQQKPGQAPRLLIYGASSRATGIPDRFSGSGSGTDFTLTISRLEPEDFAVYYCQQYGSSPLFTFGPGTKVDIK
notes: as for B1
In the case of B11, the binding result in assay [5] is on record as “binds”.

B12: Fab C7 tetramer (Fab, V domains shown)
VH: B11 VH
VL: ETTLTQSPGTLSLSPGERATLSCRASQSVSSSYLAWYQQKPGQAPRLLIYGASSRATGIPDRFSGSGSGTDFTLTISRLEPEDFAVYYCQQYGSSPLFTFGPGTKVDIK
notes: copies: 4 + 4
For the molecule B12, the binding result in assay [5] is reported as “binds”.

B13: Fab A6 (Fab, V domains shown)
VH: EVQLVQSGAEVKKPGASVKVSCKASGYTFTSYYMHWVRQSPGQGLEWMGIINPSGGSTSYAQKFQGRVTMTRDTSTSTVYMELSSLRSEDTAVYYCARNGYCSSTSCYDAFDIWGQGTMVTVSS
VL: QSALTQPASVSGSPGQSITISCTGTSSDVGGYNYVSWYQQHPGKAPKVLIYDVNQRISGVPDRFSGSKSGNTASLTISGLQAEDEADYYCCSYAGSSSWVFGGGTRLTVL
notes: as for B2
As to B13, the binding result in assay [4] is on record as “binds”.

B14: biotinylated Fab A6 (Fab, V domains shown)
VH: B13 VH
VL: B13 VL
notes: as for B1
Consider B14, for which, in assay [3], the binding result was “binds”.

B15: Fab A6 tetramer (Fab, V domains shown)
VH: B13 VH
VL: B13 VL
notes: copies: 4 + 4
As to B15, the binding result in assay [3] is given as “binds”.

B16: biotinylated Fab D10 (Fab, V domains shown)
VH: EVQLVQSGGGVVQPGRSLRLSCAASGFTFSSYGMHWVRQAPGKGLEWVAVISYDGTNTDYADSVKGRFTISRDNSKNTLYLQMNSLRAEDTAVYYCARARGIGVSGTLYFDFWGQGTLVTVSS
VL: EIVMTQSPGTLSLSPGERATLSCRASQSVSSSYLAWYQQKPGQAPRLLIYGASTRATGIPDRFSGSGSGTDFTLTINRLEPEDFAVYYCQQYGSSPGTFGQGTRLEIK
notes: as for B1
With B16, the binding result in assay [5] is given as “binds”.
